Laboratory results: patent publication US20260263645A1 (published 2026)

Target: TGFβ1 (UniProt P01137 279-390)
Test: radioligand plate binding; 89Zr-labeled

Chain of TGFβ1 (P01137 279-390): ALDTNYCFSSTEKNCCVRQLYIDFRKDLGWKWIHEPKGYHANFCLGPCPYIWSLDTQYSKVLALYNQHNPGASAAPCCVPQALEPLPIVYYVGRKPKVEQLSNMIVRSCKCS

- Kd: 66 nM
B1: Fresolimumab (antibody, V domains shown)
VH: QVQLVQSGAEVKKPGSSVKVSCKASGYTFSSNVISWVRQAPGQGLEWMGGVIPIVDIANYAQRFKGRVTITADESTSTTYMELSSLRSEDTAVYYCASTLGLVLDAMDYWGQGTLVTVSS
VL: ETVLTQSPGTLSLSPGERATLSCRASQSLGSSYLAWYQQKPGQAPRLLIYGASSRAPGIPDRFSGSGSGTDFTLTISRLEPEDFAVYYCQQYADSPITFGQGTRLEIKR
